Assay results: patent US20050147555A1 (BRACCO SUISSE, published 2005)
Like-named read-outs stand apart in the source and are kept apart here. Positions of bridges follow the written chain, without caps; N, C: chain ends. Groups on a side chain read outwards from the residue. Primed or numbered codes have the meaning given here. Chains are numbered I, II in the order given. No end group written: not given here. *: point of attachment. ivDde′ = 1-(4,4-dimethyl-2,6-dioxocyclohex-1-ylidene)-3-methylbutyl, CC(C)CC(=C1C(=O)CC(C)(C)CC1=O)*; Biotin = O=C1N[C@H]2[C@H](CS[C@H]2CCCCC(=O)*)N1; AEEA = NCCOCCOCC(=O)O

Experiments:
[1] = target: T1, KDR (VEGFR-2, Flk-1), full-length receptor on cells (human, UniProt P35968 20-1356); assay: competition with 125I-labeled VEGF for binding to KDR-transfected 293H cells, % inhibition of specific binding
T1 construct: whole, on cells; endogenous on HUVECs in the functional assays; also called VEGF receptor 2
Excerpt: (§1) After washing the cells, the bound radioactivity was quantitated on a gamma counter.

[2] = target: T1, KDR (VEGFR-2, Flk-1), full-length …; assay: displacement of P12-XB/streptavidin-HRP complex (5.5 nM) from KDR-expressing cells
Description: After determining the specific binding under each experimental condition, the IC₅₀ for each peptide was determined (where possible).

[3] = target: T1, KDR (VEGFR-2, Flk-1), full-length …; assay: cell-based or functional assay
[4] = target: T1, KDR (VEGFR-2, Flk-1), full-length …; assay: binding of the 125I-labeled dimer to KDR- and mock-transfected 293H cells with and without 40% mouse serum, CPM bound
Description: Binding was performed with and without 40% mouse serum to evaluate the serum effect on binding to KDR-transfected cells. After washing away the unbound compound, the cells in each well were lysed with 0.5 N NaOH and the lysates were counted with a gamma counter.

[5] = target: T1, KDR (VEGFR-2, Flk-1), full-length …; assay: competition with 125I-VEGF on KDR-transfected 293H cells
Description: Cells were used 24 h after transfection, and to prepare the cells for the assay, they were washed 3 times with room temperature M199 medium and placed in the refrigerator. […] Each dilution was added to three separate wells of mock and KDR transfected cells. After incubating at 4° C. for 2 h, the plates were washed 5 times with cold binding buffer, gently blotted dry and checked under a microscope for cell loss. 100 μL of solubilizing solution (2% Triton X-100, 10% Glycerol, 0.1% BSA) was added to each well and the plates were incubated at room temperature for 30 minutes. The solubilizing solution in each well was mixed by pipeting up and down, and transferred to 1.2 mL tubes. Each well was washed twice with 100 μL of solubilizing solution and the washes were added to the corresponding 1.2 mL tube.

[6] = target: T1, KDR (VEGFR-2, Flk-1), full-length …; assay: P13-conjugated microbubbles on KDR-transfected 293H cells in the presence of rising free dimer (f5), % binding
Description: (§2) At the end of the incubation, the transfected cells were rinsed three times in PBS and examined under a microscope. Binding of the conjugated bubbles was quantified and expressed as a percentage of the surface covered by the targeted microbubbles.

[7] = target: T1, KDR (VEGFR-2, Flk-1), full-length …; assay: displacement of P12-XB/streptavidin-HRP complex (5.5 nM) from KDR-expressing cells; remark: listed apart in the source
[8] = target: T2, murine KDR-Fc (recombinant, R&D Systems #443-KD-050) (murine, UniProt P35918 20-762); assay: SPR (BIAcore), murine KDR-Fc 5000 RU; KD1 = kd1/ka1
T2 construct: Bought; also called rmKDR-Fc; recombinant murine KDR-Fc; not shown: Ig Fc region of the bought chimera

[9] = target: T2, murine KDR-Fc (recombinant, R&D Systems …); assay: SPR (BIAcore), murine KDR-Fc 2700 RU; KD1 = kd1/ka1
Description: All samples were injected in duplicate. For association, peptides were injected at 30 μL/min for 3 minutes using the kinject program. Following a 10 minute dissociation, any remaining peptide was stripped from the rmKDR-Fc surface with a quickinject of 50 mM NaOH+1M NaCl for 12s at 75 μL/min.
Sensorgrams were analyzed using the simultaneous ka/kd fitting program in the BIAevaluation software 3.1.

[10] = target: T1, KDR (VEGFR-2, Flk-1), full-length …; assay: binding of the 99mTc-labeled scrambled dimer (D18 by legend paragraph 74; name box empty) to KDR- and mock-transfected 293H cells with and without 40% mouse serum, bound CPM
Description: Cells were used 24 h after transfection, and to prepare the cells for the assay, they were washed 1× with 100 μL of room temperature opti-MEMI with 0.1% HSA. […] Each dilution was added to three separate wells of mock and KDR-transfected cells. After incubating at room temperature for 1 h, the plates were washed 5 times with 100 μL of cold binding buffer (opti-MEMI with 0.1% HSA). 100 μL of solubilizing solution (0.5 N NaOH) was added to each well, and the plates were incubated at 37° C. for 10 minutes. The solubilizing solution in each well was mixed by pipeting up and down, and transferred to 1.2 mL tubes. Each well was washed once with 100 μL of solubilizing solution and the washes were added to the corresponding 1.2 mL tube.

[11] = target: T1, KDR (VEGFR-2, Flk-1), full-length …; assay: competition: corresponding free peptide against D23-conjugated microbubbles on KDR-transfected 293H cells, % binding (surface covered, relative)
Description: (§3) The transfected cells were incubated with a suspension of peptide-conjugated microbubbles in presence or absence of the corresponding free peptide (between 100 μM to 3 nM). Competition was also performed using a non-binding control peptide as a competing compound. At the end of the incubation, the transfected cells were rinsed three times in PBS and examined under a microscope. Binding of the conjugated bubbles was quantified and expressed as a percent of the surface covered by the targeted microbubbles.

[12] = target: T1, KDR (VEGFR-2, Flk-1), full-length …; assay: competition: free dimer against P13-conjugated microbubbles on KDR-transfected 293H cells, % binding
Description: as §2

[13] = target: T3, KDR-Fc (chimeric fusion of Ig Fc region with human KDR, R&D Systems #357-KD-050) (human, UniProt P35968 20-764); assay: fluorescence polarisation against KDR-Fc
T3 construct: Bought; also called KDR Fc fusion; not shown: Ig Fc region of the bought chimera

[14] = target: T1, KDR (VEGFR-2, Flk-1), full-length …; assay: competition with 125I-VEGF for specific binding to KDR-transfected 293H cells, % inhibition
Excerpt: as §1

[15] = target: T1, KDR (VEGFR-2, Flk-1), full-length …; assay: competition: corresponding free peptide against P12-conjugated microbubbles on KDR-transfected 293H cells, % binding (surface covered, relative)
Description: as §3

T1 sequence (P35968 20-1356): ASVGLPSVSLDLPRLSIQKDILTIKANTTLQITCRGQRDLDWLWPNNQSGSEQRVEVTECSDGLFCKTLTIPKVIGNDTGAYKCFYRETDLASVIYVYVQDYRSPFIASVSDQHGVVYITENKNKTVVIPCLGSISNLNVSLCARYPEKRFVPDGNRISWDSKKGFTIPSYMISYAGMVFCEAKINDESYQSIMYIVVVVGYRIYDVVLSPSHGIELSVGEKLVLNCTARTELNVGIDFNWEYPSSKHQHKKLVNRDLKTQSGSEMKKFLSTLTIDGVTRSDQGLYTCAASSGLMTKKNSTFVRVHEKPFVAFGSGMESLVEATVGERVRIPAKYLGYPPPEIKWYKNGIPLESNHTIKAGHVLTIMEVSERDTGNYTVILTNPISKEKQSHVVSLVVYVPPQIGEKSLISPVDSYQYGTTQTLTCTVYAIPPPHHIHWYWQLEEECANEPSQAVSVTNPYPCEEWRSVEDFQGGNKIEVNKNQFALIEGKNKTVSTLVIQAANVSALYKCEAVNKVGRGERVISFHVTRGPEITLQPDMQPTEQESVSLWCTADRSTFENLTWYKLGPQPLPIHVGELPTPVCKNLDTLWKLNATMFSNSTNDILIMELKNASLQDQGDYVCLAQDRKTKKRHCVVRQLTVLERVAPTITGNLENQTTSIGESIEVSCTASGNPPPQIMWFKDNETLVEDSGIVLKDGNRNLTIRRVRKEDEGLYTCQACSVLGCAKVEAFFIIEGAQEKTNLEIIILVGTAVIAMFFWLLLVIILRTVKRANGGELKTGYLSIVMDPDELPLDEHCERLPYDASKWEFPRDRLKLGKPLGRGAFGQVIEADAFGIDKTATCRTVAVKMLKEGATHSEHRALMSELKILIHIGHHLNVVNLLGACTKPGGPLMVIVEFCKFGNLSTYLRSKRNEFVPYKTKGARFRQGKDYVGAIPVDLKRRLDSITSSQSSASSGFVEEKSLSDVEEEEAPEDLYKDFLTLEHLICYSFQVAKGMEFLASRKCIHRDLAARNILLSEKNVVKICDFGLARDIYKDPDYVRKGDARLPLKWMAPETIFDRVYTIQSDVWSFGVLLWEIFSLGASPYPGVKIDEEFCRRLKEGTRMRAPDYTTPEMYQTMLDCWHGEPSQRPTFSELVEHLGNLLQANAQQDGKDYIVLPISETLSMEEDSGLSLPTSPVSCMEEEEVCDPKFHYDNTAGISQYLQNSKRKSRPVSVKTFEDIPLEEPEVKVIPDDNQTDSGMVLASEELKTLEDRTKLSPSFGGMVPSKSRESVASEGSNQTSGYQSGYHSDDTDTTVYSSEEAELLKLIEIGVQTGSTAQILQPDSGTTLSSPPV
T2 sequence (P35918 20-762): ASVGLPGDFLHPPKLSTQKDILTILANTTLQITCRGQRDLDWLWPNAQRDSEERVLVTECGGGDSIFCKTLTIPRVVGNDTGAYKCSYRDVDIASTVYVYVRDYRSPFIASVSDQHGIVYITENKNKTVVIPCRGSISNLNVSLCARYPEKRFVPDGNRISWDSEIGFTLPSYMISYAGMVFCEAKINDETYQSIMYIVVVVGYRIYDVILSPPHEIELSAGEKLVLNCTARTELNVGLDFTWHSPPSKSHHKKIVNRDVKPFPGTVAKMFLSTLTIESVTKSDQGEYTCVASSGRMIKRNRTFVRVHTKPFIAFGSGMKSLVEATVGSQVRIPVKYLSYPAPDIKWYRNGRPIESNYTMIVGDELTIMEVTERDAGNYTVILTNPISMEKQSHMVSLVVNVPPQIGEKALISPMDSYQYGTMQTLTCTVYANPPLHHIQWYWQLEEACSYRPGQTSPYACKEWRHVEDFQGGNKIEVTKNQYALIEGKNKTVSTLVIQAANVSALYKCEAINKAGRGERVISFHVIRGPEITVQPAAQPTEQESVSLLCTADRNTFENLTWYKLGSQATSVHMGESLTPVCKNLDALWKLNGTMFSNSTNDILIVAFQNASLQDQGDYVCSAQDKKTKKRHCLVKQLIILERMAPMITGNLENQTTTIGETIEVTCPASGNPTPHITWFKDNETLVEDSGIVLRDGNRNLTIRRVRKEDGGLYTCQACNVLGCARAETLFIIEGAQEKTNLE
T3 sequence (P35968 20-764, stated change not applied): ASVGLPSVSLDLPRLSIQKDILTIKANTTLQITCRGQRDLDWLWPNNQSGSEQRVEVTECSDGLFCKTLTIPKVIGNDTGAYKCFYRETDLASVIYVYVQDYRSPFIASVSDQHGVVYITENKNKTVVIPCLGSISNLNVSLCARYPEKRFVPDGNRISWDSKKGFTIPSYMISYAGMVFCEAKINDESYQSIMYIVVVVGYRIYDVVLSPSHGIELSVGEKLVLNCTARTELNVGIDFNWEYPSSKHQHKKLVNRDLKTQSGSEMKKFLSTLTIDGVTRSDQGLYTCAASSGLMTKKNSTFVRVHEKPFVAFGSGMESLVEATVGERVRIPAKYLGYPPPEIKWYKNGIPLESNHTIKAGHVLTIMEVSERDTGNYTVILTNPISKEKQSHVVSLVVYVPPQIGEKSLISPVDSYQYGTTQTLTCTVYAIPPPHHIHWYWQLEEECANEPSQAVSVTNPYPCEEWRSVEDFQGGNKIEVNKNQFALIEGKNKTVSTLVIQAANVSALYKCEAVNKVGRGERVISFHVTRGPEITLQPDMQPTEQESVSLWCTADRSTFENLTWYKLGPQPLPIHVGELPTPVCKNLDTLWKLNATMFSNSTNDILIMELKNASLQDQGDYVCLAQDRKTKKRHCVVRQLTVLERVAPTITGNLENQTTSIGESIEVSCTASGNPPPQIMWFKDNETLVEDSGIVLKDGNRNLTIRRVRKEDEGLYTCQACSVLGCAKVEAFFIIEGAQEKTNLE

B1: D3 (peptide)
peptide 1: VCWEDSWGGEVCFRYDPGGGK
peptide 2: VCWEDSWGGEVCFRYDPGGGK
modifications: not fully specified; N-acetyl; C2-C12 disulfide; C-terminal Lys amide, side chain joined to linker; N-acetyl; C2-C12 disulfide; C-terminal amide; Lys21 side chain bears Biotin-JJK branch and linker
binding result [1]: binds

Ac-DWYYGGGK-NH2 [F1]
IC50 [2]: 850 nM

Ac-AGWLECYAEFGHCYNFGTGGGK-NH2 (disulfide 6-13 (inferred)) [P3-D]
VEGF-induced KDR phosphorylation in HUVECs (immunoblot) [3]: ≥ 50 % inhibition at 10 µM

Ac-AQGDYVYWEIIELTGATDHTPPGGGK-NH2 [P11-D]
VEGF-induced KDR phosphorylation in HUVECs (immunoblot) [3]: ≥ 50 % inhibition at 10 µM

B2: 125I-labeled D5 (peptide)
peptide 1: VCWEDSWGGEVCFRYDPGGGK
peptide 2: AGPTWCEDDWYYCWLFGTGGGK
modifications: not fully specified; N-acetyl; C6-C13 disulfide; C-terminal Lys amide, side chain carries the branching Lys; 125I Bolton-Hunter label on the free amine; N-acetyl; C2-C12 disulfide; C-terminal amide; Lys21 side chain joined to JJ-glutaryl linker
binding result [4]: binds

Ac-GDPDTCTMWGDSGRWYCFPADPGGGK-NH2 (disulfide 6-17 (inferred)) [P8-D]
VEGF-induced KDR phosphorylation in HUVECs (immunoblot) [3]: ≥ 50 % inhibition at 10 µM

B3: P12-XB (peptide)
peptide: Ac-AGPTWCEDDWYYCWLFGTGGGK([AEEA-AEEA-Biotin])-NH2
modifications: disulfide 6-13
SMILES: CC(=O)N[C@@H](C)C(=O)NCC(=O)N1CCC[C@H]1C(=O)N[C@H](C(=O)N[C@@H](Cc1c[nH]c2ccccc12)C(=O)N[C@H]1CSSC[C@@H](C(=O)N[C@@H](Cc2c[nH]c3ccccc23)C(=O)N[C@@H](CC(C)C)C(=O)N[C@@H](Cc2ccccc2)C(=O)NCC(=O)N[C@H](C(=O)NCC(=O)NCC(=O)NCC(=O)N[C@@H](CCCCNC(=O)COCCOCCNC(=O)COCCOCCNC(=O)CCCC[C@@H]2SC[C@@H]3NC(=O)N[C@@H]32)C(N)=O)[C@@H](C)O)NC(=O)[C@H](Cc2ccc(O)cc2)NC(=O)[C@H](Cc2ccc(O)cc2)NC(=O)[C@H](Cc2c[nH]c3ccccc23)NC(=O)[C@H](CC(=O)O)NC(=O)[C@H](CC(=O)O)NC(=O)[C@H](CCC(=O)O)NC1=O)[C@@H](C)O
notes: Free monomeric peptide
IC50, VEGF-induced KDR phosphorylation in HUVECs [3]: 100 nM | % inhibition of 125I-VEGF binding at 0.3 µM [5]: 81% | % inhibition of 125I-VEGF binding at 30 µM [5]: 104%

AQDWYYDEILSMADQLRHAFLSGG (also: conjugated to microbubbles) [P13 conjugated to microbubbles]
binding result [6]: binds

B4: P34-L (peptide)
peptide: Ac-AGPTWKEDDWYYEWLFGTGGGK-NH2
modifications: lactam 6-13
SMILES: CC(=O)N[C@@H](C)C(=O)NCC(=O)N1CCC[C@H]1C(=O)N[C@H](C(=O)N[C@@H](Cc1c[nH]c2ccccc12)C(=O)N[C@H]1CCCCNC(=O)CC[C@@H](C(=O)N[C@@H](Cc2c[nH]c3ccccc23)C(=O)N[C@@H](CC(C)C)C(=O)N[C@@H](Cc2ccccc2)C(=O)NCC(=O)N[C@H](C(=O)NCC(=O)NCC(=O)NCC(=O)N[C@@H](CCCCN)C(N)=O)[C@@H](C)O)NC(=O)[C@H](Cc2ccc(O)cc2)NC(=O)[C@H](Cc2ccc(O)cc2)NC(=O)[C@H](Cc2c[nH]c3ccccc23)NC(=O)[C@H](CC(=O)O)NC(=O)[C@H](CC(=O)O)NC(=O)[C@H](CCC(=O)O)NC1=O)[C@@H](C)O
notes: also called lactam analog of P12-G
IC50 [7]: 108 nM

B5: D2 (peptide)
peptide 1: AGPTWCEDDWYYCWLFGTGGGK
peptide 2: AGPTWCEDDWYYCWLFGTK
modifications: not fully specified; N-acetyl; C6-C13 disulfide; J (8-amino-3,6-dioxaoctanoyl) between Thr18 and the C-terminal Lys amide, whose side chain is joined to the linker; N-acetyl; C6-C13 disulfide; C-terminal amide; Lys22 side chain bears branch/linker
binding result [1]: binds

Ac-AGPTWCEDDWYYCWLFGTGGGK-NH2 (disulfide 6-13; also: fluorescein label (site not given here)) [Fluorescein labeled P12-G]
Kd [8]: 33.6 nM | Kd [9]: 36.4 nM

B6: 99mTc-labeled D18 (peptide)
peptide 1: Ac-APGTWCDYDWEYCWLGTFGGGK-NH2
peptide 2: Ac-GVDFRCEWSDWGEVGCRSPDYGGGK-NH2
modifications: disulfide I:6-I:13, II:6-II:16; not fully specified (some residues, bridges); printed as Ac-APGTWC*DYDWEYC*WLGTFGGGK{PnAO6-Glut-K[Ac-GVDFRC*EWSDWGEVGC*RSPDYGGGK(JJ-Glut)-NH2]}—NH2; also: 99mTc complex on PnAO6
notes: also called scrambled derivative of D10
binding result [10]: no binding (tested: 10.0 uCi/mL)

B7: D24 (peptide)
peptide 1: AGPTWCEDDWYYCWLFGTGGGK
peptide 2: VCWEDSWGGEVCFRYDPGGGK
modifications: not fully specified; N-acetyl; C2-C12 disulfide; C-terminal amide; Lys21 side chain joined to JJ-glutaryl linker; N-acetyl; C6-C13 disulfide; C-terminal amide; Lys22 side chain bears SATA-JJ-Lys branch
IC50, VEGF-induced migration of HUVECs [3]: 5 nM

Ac-AQEPEGYAYWEVITLYHEEDGDGGK-NH2 [P9-D]
VEGF-induced KDR phosphorylation in HUVECs (immunoblot) [3]: ≥ 50 % inhibition at 10 µM

B8: D23 (peptide)
P12-derived peptide: Ac-AGPTWCEDDWYYCWLFGTGGGK-NH2
truncated P6-derived peptide: Ac-VCWEDSWGGEVCFRYDPGGGK-NH2
modifications: disulfide I:6-I:13, II:2-II:12; not fully specified (bridges)
notes: Free, not on microbubbles (the list holds only the conjugate m37); The text says only 'corresponding free' dimeric peptide; also called free dimer
IC50 (read off the curve) [11]: ~30 nM | IC50 (read off the curve) [12]: ~20 nM

B9: D17 (peptide)
peptide 1: AQDWYYDEILGRGGRGGRGGK
peptide 2: VCWEDSWGGEVCFRYDPGGGK
modifications: not fully specified; N-acetyl; C2-C12 disulfide; C-terminal amide; Lys21 side chain joined to JJ-glutaryl linker; N-acetyl; J (8-amino-3,6-dioxaoctanoyl) between Leu10 and the next Gly; C-terminal Lys side chain bears the branching Lys; C-terminal amide
IC50, VEGF-induced migration of HUVECs [3]: ~250 nM

Ac-AQAFPRFGGDDYWIQQYLRYTDGGK-NH2 [P10-D]
VEGF-induced KDR phosphorylation in HUVECs (immunoblot) [3]: ≥ 50 % inhibition at 10 µM

AGDSWCSTEYTYCEMIGT (disulfide 6-13; not fully specified) [P4]
Kd [13]: > 2000 nM

Ac-AGWIECYHPDGICYHFGTGGGK-NH2 (disulfide 6-13 (inferred)) [P2-D]
VEGF-induced KDR phosphorylation in HUVECs (immunoblot) [3]: ≥ 50 % inhibition at 10 µM

Ac-AQDWYYDEILSMADQLRHAFLSGG-NH2 [P13-D]
binding result [1]: binds

Ac-GDWWECK(ivDde′)REEYRNTTWCAWADPGGGK-NH2 (disulfide 6-17 (inferred)) [P7-E]
VEGF-induced KDR phosphorylation in HUVECs (immunoblot) [3]: ≥ 50 % inhibition at 10 µM

GDSRVCWEDSWGGEVCFRYDP (disulfide 6-16 (inferred)) [P6]
% inhibition of 125I-VEGF binding at 0.3 µM [5]: 52.3% | % inhibition of 125I-VEGF binding at 30 µM [5]: 96.3%

B10: PG-1 (peptide)
peptide: Ac-ERVTTCWPGEYGGVECYSVAY-NH2
modifications: not fully specified (bridges); printed as Ac-ERVTTCWPGEYGGVECYSVAY—NH2; cysteine pairing not given here
binding result [14]: binds

B11: D1 (peptide)
peptide 1: AGPTWCEDDWYYCWLFGTGGGK
peptide 2: VCWEDSWGGEVCFRYDPGGGK
modifications: not fully specified; N-acetyl; C2-C12 disulfide; C-terminal Lys amide (printed as NH(CH2)4-(S)-CH(..NH)CONH2), side chain joined to linker; N-acetyl; C6-C13 disulfide; C-terminal amide; Lys22 side chain bears branch/linker
notes: J = 8-amino-3,6-dioxaoctanoyl; also called DI
IC50 in the activation assay against that of D2 [3]: ≥ 100 fold lower than D2

B12: P12 (peptide)
peptide: AGPTWCEDDWYYCWLFGT
modifications: disulfide 6-13
notes: the list holds only the microbubble conjugate m56 and other P12 derivatives
binding result [15]: binds

Ac-GDSRVCWEDSWGGEVCFRYDPGGGK-NH2 (disulfide 6-16 (inferred)) [P6-D]
IC50, VEGF-induced KDR phosphorylation in HUVECs [3]: 1000 nM | VEGF-induced KDR phosphorylation in HUVECs (immunoblot) [3]: ≥ 50 % inhibition at 10 µM
